Results: PMC6821326 (Nucleic Acids Research, 2019)

Target: T1, wild-type YoeB toxin, YoeB(His)6 (Escherichia coli, UniProt P69348)
T1 sequence: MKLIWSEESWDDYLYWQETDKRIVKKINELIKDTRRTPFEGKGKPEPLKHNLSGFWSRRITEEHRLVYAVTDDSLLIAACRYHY
Experiment: pull-down

B1: YefM antitoxin (natural protein)
chain: MRTISYSEARQNLSATMMKAVEDHAPILITRQNGEACVLMSLEEYNSLEETAYLLRSPANARRLMDSIDSLKSGKGTEKDIIE
  binding result: binds
